Measurements as given in paper PMC4140777.

Assays:
[1] = target: T1, β-bungarotoxin (β-BuTx) (Bungarus multicinctus) (UniProt P00618+P00987); test: fluorescence anisotropy; settings: 20 mM HEPES pH 7.4, 150 mM NaCl, 5 mM KCl, 2 mM MgCl2, 2 mM CaCl2, room temperature
[2] = target: T1, β-bungarotoxin (β-BuTx) (Bungarus multicinctus); test: filter binding; settings: 20 mM HEPES pH 7.4, 150 mM NaCl, 5 mM KCl, 2 mM MgCl2, 2 mM CaCl2, room temperature

T1 sequence (P00618 26-145, chain 1 of 2): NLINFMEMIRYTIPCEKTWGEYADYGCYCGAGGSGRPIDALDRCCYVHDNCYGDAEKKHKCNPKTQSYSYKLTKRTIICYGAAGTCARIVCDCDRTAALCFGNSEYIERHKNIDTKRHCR
T1 sequence (P00987 25-85, chain 2 of 2): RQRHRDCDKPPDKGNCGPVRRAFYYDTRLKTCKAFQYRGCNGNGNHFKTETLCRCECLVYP

Sequence | Kd [1] [nM] | binding signal [2] [% bound]
AGCAGCACAGAGGTCAGATGATTAGTCATGTTTGTTTGTCTGGCTTTTTGGGTTTGTGCAGTATTATGAACCCTATGCGTGCTACCGTGAA [βB-20] | 83.8 | 
AGCAGCACAGAGGTCAGATGGCAATGCACCTTTGTCTCTTATAGTTTATTTTTTGCCTTCCTATGCGTGCTACCGTGAA [βB-32] | 995 | 
AGCAGCACAGAGGTCAGATGGTTTTCCCCTTGTCGCTTTTGGTTCGTTCTGCCTCTATCTCCTATGCGTGCTACCGTGAA [βB-1] | 65.9 | 45
AGCAGCACAGAGGTCAGATGTTTGGTGTGGATCCTGAACATTTATATTCTTTCGTTTTTTCCTATGCGTGCTACCGTGAA [βB-19] | 530 | 
